Experimental data as given in article PMC10397247.

How the values were obtained:
[1] = target: T1, O1-bN; assay: two-hybrid library CCNG1;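 also: natural log of median RNA to DNA barcode read ratio; higher means stronger binding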
T1 chain: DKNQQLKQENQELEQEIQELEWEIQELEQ

[2] = target: T2, O10-bN; assay: two-hybrid library CCNG1;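 also: natural log of median RNA to DNA barcode read ratio; higher means stronger binding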
T2 chain: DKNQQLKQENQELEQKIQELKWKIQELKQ

[3] = target: T3, O11-bN; assay: two-hybrid library CCNG1;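 also: natural log of median RNA to DNA barcode read ratio; higher means stronger binding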
T3 chain: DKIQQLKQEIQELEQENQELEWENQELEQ

[4] = target: T4, O12-bN; assay: two-hybrid library CCNG1;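 also: natural log of median RNA to DNA barcode read ratio; higher means stronger binding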
T4 chain: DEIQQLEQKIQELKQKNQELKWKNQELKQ

[5] = target: T5, O13-bN; assay: two-hybrid library CCNG1;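 also: natural log of median RNA to DNA barcode read ratio; higher means stronger binding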
T5 chain: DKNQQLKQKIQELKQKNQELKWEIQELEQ

[6] = target: T6, O14-bN; assay: two-hybrid library CCNG1;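 also: natural log of median RNA to DNA barcode read ratio; higher means stronger binding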
T6 chain: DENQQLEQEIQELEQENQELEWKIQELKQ

[7] = target: T7, O15-bN; assay: two-hybrid library CCNG1
T7 chain: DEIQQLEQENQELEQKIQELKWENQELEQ

[8] = target: T8, O16-bN; assay: two-hybrid library CCNG1
T8 chain: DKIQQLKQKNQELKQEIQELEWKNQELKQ

[9] = target: T9, O2-bN; assay: two-hybrid library CCNG1
T9 chain: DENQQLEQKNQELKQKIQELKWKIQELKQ

[10] = target: T10, O3-bN; assay: two-hybrid library CCNG1
T10 chain: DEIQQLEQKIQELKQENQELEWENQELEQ

[11] = target: T11, O4-bN; assay: two-hybrid library CCNG1
T11 chain: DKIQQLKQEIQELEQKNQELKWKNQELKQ

[12] = target: T12, O5-bN; assay: two-hybrid library CCNG1
T12 chain: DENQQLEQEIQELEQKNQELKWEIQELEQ

[13] = target: T13, O6-bN; assay: two-hybrid library CCNG1
T13 chain: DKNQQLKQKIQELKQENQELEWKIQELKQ

[14] = target: T14, O7-bN; assay: two-hybrid library CCNG1
T14 chain: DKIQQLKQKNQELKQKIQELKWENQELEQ

[15] = target: T15, O8-bN; assay: two-hybrid library CCNG1
T15 chain: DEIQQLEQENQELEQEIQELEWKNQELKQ

[16] = target: T16, O9-bN; assay: two-hybrid library CCNG1
T16 chain: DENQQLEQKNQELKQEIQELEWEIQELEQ

[17] = target: T17, 4H1347-bH; assay: two-hybrid library CCNG1
T17 chain: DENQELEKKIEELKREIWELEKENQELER

[18] = target: T18, 4H145-bH; assay: two-hybrid library CCNG1
T18 chain: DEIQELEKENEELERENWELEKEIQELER

[19] = target: T19, 4H2619-bH; assay: two-hybrid library CCNG1
T19 chain: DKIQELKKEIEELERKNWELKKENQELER

[20] = target: T20, 4H2691-bH; assay: two-hybrid library CCNG1
T20 chain: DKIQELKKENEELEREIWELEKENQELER

[21] = target: T21, 4H3070-bH; assay: two-hybrid library CCNG1
T21 chain: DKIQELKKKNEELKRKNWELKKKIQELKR

[22] = target: T22, 4H342-bH; assay: two-hybrid library CCNG1
T22 chain: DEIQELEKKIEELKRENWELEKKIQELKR

[23] = target: T23, 4H3632-bH; assay: two-hybrid library CCNG1
T23 chain: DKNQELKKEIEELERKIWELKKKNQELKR

[24] = target: T24, 4H496-bH; assay: two-hybrid library CCNG1
T24 chain: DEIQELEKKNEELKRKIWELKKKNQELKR

[25] = target: T25, Core_NINN-es_KKKE; assay: two-hybrid library CCmax; details: mean of both orientations
T25 chain: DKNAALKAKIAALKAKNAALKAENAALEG

[26] = target: T26, Core_NIIN-es_KKEE; assay: two-hybrid library CCmax; details: mean of both orientations
T26 chain: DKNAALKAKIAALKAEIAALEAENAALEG

[27] = target: T27, Core_IINI-es_KKEK; assay: two-hybrid library CCmax; details: mean of both orientations
T27 chain: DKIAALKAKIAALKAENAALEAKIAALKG

DKNQQLKQENQELEQEIQELEWEIQELEQ [O1-bN]
interaction score [1]: -0.57
interaction score [2]: -0.61
interaction score [3]: -1.2
interaction score [4]: -1.46
interaction score [5]: -1.14
interaction score [6]: -1.24
interaction score [7]: -1.32
interaction score [8]: -1.9
interaction score [9]: 2
interaction score [10]: -2.11
interaction score [11]: -0.922
interaction score [12]: -1.54
interaction score [13]: -1.45
interaction score [14]: -1.34
interaction score [15]: -0.836
interaction score [16]: -1.9

DENQELEKKIEELKREIWELEKENQELER [4H1347-bH]
interaction score [17]: 0.364
interaction score [18]: -0.368
interaction score [19]: -0.987
interaction score [20]: -0.275
interaction score [21]: -0.395
interaction score [22]: -0.391
interaction score [23]: 1.71
interaction score [24]: -0.415

DENAALEAEIAALEAENAALEAKNAALKG [Core_NINN-es_EEEK]
interaction score [25]: 2.16

DENAALEAEIAALEAKIAALKAKNAALKG [Core_NIIN-es_EEKK]
interaction score [26]: 2.03

DEIAALEAEIAALEAKNAALKAEIAALEG [Core_IINI-es_EEKE]
interaction score [27]: 2.32
